Assay: yeast display, Sf9 membrane polyspecificity reagent, FACS + sequencing; frameworks hold sequencing errors
In short: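 Galactose induction of a Saccharomyces cerevisiae BJ5465 synthetic nanobody display library ran 36–48 hours. The cells were then stained for 1 hour at 4 °C with 10% biotinylated, detergent-solubilized Sf9 membrane reagent, pulled down on streptavidin microbeads and FACS-sorted into low and high (top ~1%) gates on expression and reagent-binding fluorescence. Labels for polyreactivity follow the gate of origin.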

Sequence: QVQLVESGGGLVQAGGSLRLSCAASGRTFRLNAMGWYRQAPGKERELVAAINTGGGTYYADSVKGRFTISRDNAKNSVYLQMNSLKPEDTAVYYCNACTRYGSFSYVKYDWGQGTQVTVSS
- polyreactivity (PSR sort gate): high polyreactivity

Sequence: QVQLVESGGGLVQAGGSLRLRCAPSGSIFSAYAMGWYRQAPGKVREVVAGISKSGARTYYADSVKGRFTLSRDNAKNTVYLQMNRLKPEDTAVYYCAAVDYYLYYYWGQGTQVTVSS
- polyreactivity (PSR sort gate): high polyreactivity

Sequence: QVQLVESGGGLVQAGGRLRLTCAASGRIFYRYAMGWYRQAPGKERELVASITRSGITHYADSVKGRFTISRDNAKNTVYLQMNSLKPEDTAVYYCNARRGSPAPYDYWGKGTQVTVSS
- polyreactivity (PSR sort gate): high polyreactivity

Sequence: QVQLVESGGGLVQAGGSLRLSCAASGRTFTNNAMGWYRQAPGKERELVAAIRWSGGYTYYADSVKGRFTISRDNAKNTVYLQMNSQKPEDTAVYYCAKGYGYVEAVIVQYDYWGQGSQVTVSS
- polyreactivity (PSR sort gate): low polyreactivity

Sequence: QVQLVESGGGIVQAGGSLRLSCAASGRIFYYYAMGWYRQAPGKESELVAAISRSGGRTYYADSVKGRFTISRDNAKNTVYLHMNSLKPEDTAVYYCNVVRQGGTLGYDYWGQGTQVTVSS
- polyreactivity (PSR sort gate): high polyreactivity

Sequence: QVQLVESGGGLVQAGGSLRLSCAASGSIFAGHAMGWSIQAPGKERELVAAISRRGGNTYYADSVKGRFTISRDNAKNTVYLQMNSLKPEDTAVYYCAVRSRLYSSSIAYDYWGQGTQVTVSS
- polyreactivity (PSR sort gate): high polyreactivity

Sequence: QVQLVESGGGLVQAGGSLRLSCAASGITFGANAMGWYRQAPGKERELVADITWSGGDTYYADSVKGRFTISRDTAKNTVYLQLHSLKPEDTAVYYCAVDTYIYTNRRYTKFDYWGQGTQVTVSS
- polyreactivity (PSR sort gate): low polyreactivity

Sequence: QVHLGETGGGLVQAGGSLRLSCAASGSIFSSYAMGWYRQAPGKETELVATITRGGRTSYADSVKGRFTISRDNAKNTVYLQMNSLKPEDTAVDYCAADLYDNVGEFNYWGEGTQVTVSS
- polyreactivity (PSR sort gate): low polyreactivity

Sequence: QVQLVESGGGLVQAGGSLRLSCAASGSILESNVMGWYRQAPGKERELVASISSSGDSTYADSVKGRFTISRDNAKNTVYLQMNSLKPEDTAVYYCNADRTQDRNPYTYATFDYWGQGTQVTVSS
- polyreactivity (PSR sort gate): low polyreactivity

Sequence: QVQLVESGGGLVQAGGSLRLSCAASGFTFSFYTMGWYRQAPGKERELVAAISRRGGSTYYADSVKGRFTISRDNAKNTVYLQMNSLKPEDTAVYYCATDHIPSVGVDYWGQGTQVTVSS
- polyreactivity (PSR sort gate): high polyreactivity

Sequence: QVQHVESGGRLVQAGGSLRLSCAASGRTFPQYAMGWYRQAPGKERELVAAITSGDSTNYSDSVKGRFTISRDNAKNTVYLQMNSLKPEDTAVYYCAAVYYYSKWYTPYEDVYWGQGTQVTVSS
- polyreactivity (PSR sort gate): low polyreactivity

Sequence: QVQLVESCGGLVQAGGSLRLSCSASGFIIPYYAMGWYRQAPGKERELVAAISYSGDSTYYADSVKGRFTISRDNAKNTVYLLMISLKPEDTAVYYCAADVEQYYPLLTFDYCGQGTQVTVSS
- polyreactivity (PSR sort gate): low polyreactivity

Sequence: QVQLVESGGGLVQAGGSLRLSCAASGSIFVPYAMGWYRQAPGKERELVAAINHGGGRTYADSVKGRFTISRDNAKNTVYLQMNSLKPEDTAVYYCAADGAHKFGYYRYYYWGQGTQVTVSS
- polyreactivity (PSR sort gate): low polyreactivity

Sequence: QVQLVESGGGLVQAGGSLRLSCAASGRTFYDYAMGWYRQAPGKERELVAGIRWSGGSTYYADSVKGRFTISRDNAKNTVYLQMISLKPEDTAVYYCAADWFAGVAADVEYDYWGQGTQVTVSS
- polyreactivity (PSR sort gate): low polyreactivity

Sequence: QVQLVESGGGLVQAGGSLRLSFAASGYTFAGNAMGWYRQAPGKERELVAVITYSGVSTYYADSVKGRFTISRDNAKNTVYLQMNSLKPEDTAVYYCNAVRERYASDYWGQGTQVTVSS
- polyreactivity (PSR sort gate): low polyreactivity

Sequence: QVQLVESGGGLVQAGGSLRLSCAASGRTFISYAMGWYRQAPGKERELVAAIDFSDGSTYYADSVKGRFTISRDNAKNTVYLQMNSLKPEDTAVYYCAADDPGLGYWSLTWYDYWGQGTQVTVSS
- polyreactivity (PSR sort gate): high polyreactivity

Sequence: QVQLVESGGGLVQAGGSLRLSCAASGLIFYYYAMGWYRQAPGKEREFVAAINSSGDSTYYADSVKGRFTISRDNAKNTVYLQMNSLKPEDTAVYYCNVDWYLHEYDYWGQGTQVTVSS
- polyreactivity (PSR sort gate): low polyreactivity

Sequence: QVQLVESGGGLVQAGGILRLSCAASGILVYNAMGWYIQAPGTERVLVAAISARGGRTYYADSVKGRFTISRDNAKNTVNLQMNSLKPEDTPVYYCATLETTGVNYWGQGTQVTVSS
- polyreactivity (PSR sort gate): high polyreactivity

Sequence: QVQLVESGGGLVQAGGSLRLSCAASGSIFGLYTMGWYRQAPGKERELVAAISGGGGSTYYADSVKGRFTISRDNAKNTVYLQMNSLKPEDTAVYYCAADLELSEWYDYWGQGTQVTVSS
- polyreactivity (PSR sort gate): low polyreactivity

Sequence: QVQLVESGGGLVQAGGSLRLSCASSGSTFTPNAMGWYRQAPGKERELVASNYTTGGNTYYADSVKGRFTNSRDNAKNTVYLQMNSLKPEDTAVYYCNARQALVWKWSWYSPGYDYWGQGTQVTVSS
- polyreactivity (PSR sort gate): low polyreactivity

Sequence: QVQLQESGGGLVQAGGSLRLSCAASGNTSDTGYMGWYRQAPGKERKLVASIDYGSNTYYADSVKVRFTISRDNAKNTVYLQMNSLKPEDTAVYYCAAYYIGDYTLVYWGQGTQVTVSS
- polyreactivity (PSR sort gate): high polyreactivity

Sequence: QVQLVESGGGLVQAGGSLRLSCAASGLTFNWNAMGWYRQAPGKERELVAAIRSSGGSTYADSVKGRFTISRDNAKNTVYLQMNSLKPEDTAVYYCAARSRVPPAGPRYDYWGQGTQVTVSS
- polyreactivity (PSR sort gate): high polyreactivity

Sequence: QVQLEESGGGLVQAGGSLRLSCAASGSIFVYNAMGWYRQAPGKERELVAAISQRGGSTYYADSVKGRFTISRDNDKNTVYLQMNSLKPEDTAVYYCAAGPGDSGDDYWGQGTQVTVAS
- polyreactivity (PSR sort gate): low polyreactivity

Sequence: QVQLVESAGGLVQAGGSLRLSCAASGFIFRNYAMGWYRQEHGKERELVAAISRRGGSTYYADSVKGRFTISRDNAKNTVYLQMNSLKPEDTAVYYCAADYYYSSRIEYYYWGQGTQVTVSS
- polyreactivity (PSR sort gate): high polyreactivity

Sequence: QLQHVESGGGLVQAGGSLRLSCAASGYIFPVNAMGSYRQAPGKERELVASLTSGGSTYYADSVKGRFTISRDNAKNTVYLQMNSLKPEDTAVYYCAAQLGYAKPYVYGEWYYYWGQGNQVTVSS
- polyreactivity (PSR sort gate): low polyreactivity

Sequence: QVQLVESGGGLVQAGGSLRLSCAASGSIFRGNAMGWYRQAPGKERELVAAITRSGGRTYYADTVKGRFTISRDNAKNTVYLHMNSLKPEDTAVYYCAAEYYTRLGYWGQGTQVTVSS
- polyreactivity (PSR sort gate): high polyreactivity

Sequence: QVQLVESGGGLVQAGGSLRLSCAASGNTFYSYAMGWYRQAPGKERELVAAITWGGRTKYADSVKGRFTISRDNAKNTVYLQMNSLKPEDTAVDYCAARLYHGKTKYDYWGQGTQVTVSS
- polyreactivity (PSR sort gate): high polyreactivity

Sequence: QVQLVESGGGLVQAGGSLRLSCAASGSIFYHYAMGLYRQAPGKERELVAAISGSGGSTYYADSVKGRFTISRDNAKNTVYLQMNSLKPEDTAVYYCAADTSRYHYTRYFFDSDYWGQGTQVTVSS
- polyreactivity (PSR sort gate): low polyreactivity

Sequence: QVQLVESGGRLFQAGGSLRLSCAASRSIFSTYGKGWYRQPPGKERELVAAITSGVGRTNYADSVKGRFTISRDNAKNTVDLQMNSLKPEDTAVNYCAVRSLGTLDVYDLATEYDYWGQGTQVTVSS
- polyreactivity (PSR sort gate): low polyreactivity

Sequence: QVQLVESGGGLVQAGGSLRLSCAASGNIFTYNTMGWYRQAPRKERELVAAISSGGSTYYADSVKGRFTISRDNAKNTVYLQMNSLKPEDTAVYYCNRRRWLWQTARGDYWGQGTQVTVSS
- polyreactivity (PSR sort gate): high polyreactivity

Sequence: QVQLVESGGGLVQAGGSLRLSCAASGFIFRAYTMGWYRQAPGKERELVAAITSGSSTNYADSVKGRFTISRDNAKNTVYLQMNSLKPEDTAVYYCNTDWVWLIIEYDYWGQGTQVTVSS
- polyreactivity (PSR sort gate): low polyreactivity

Sequence: QVLLQESGGGLVQAGGSLRMSCAASGNIFSAGGMGWYRQAPVNERELVAGIGTGTSTNYADSVKGRFTISRDNAKNTVYLQMNSLKPEDTAVYYCAAAYYSGLSHWYWGQGTQVTVSS
- polyreactivity (PSR sort gate): low polyreactivity

Sequence: QVQLVESGGGLVQAGGSRRLSWAASGFIFARNTMGWYRQAPGTERELVAAITKSGGSTYYADSVKGRFTISRDNAKNTVYLQMNILKPEDTAVYYCGARSYTLRGVYFSGYDYWGQGTQVTVSS
- polyreactivity (PSR sort gate): low polyreactivity

Sequence: QVQLVESGGGLVQAGGSLRLSCAASGSIFGVNAMGWYRQAHGKERELVASITGGDSTNYADSVKGRFTISRDNAKNTVYLLMNSLKPEDTAVYYCAKDHYYRYEEGDYWGQGTQVTVSS
- polyreactivity (PSR sort gate): low polyreactivity

Sequence: QVQLVESGGGLVQAGGSLRLSCSASGITFLHYAMGWYIQAPGKERELVARITYSGSSTYYADSVKGRFTISRDNAKNTVYLQMNSLKPEDTAVYYCNASASWGRWSRTGTPRYYYWGQGTQVTVSS
- polyreactivity (PSR sort gate): high polyreactivity

Sequence: QVQLVESGGGLVQAGGSLRLSCAASGSTFPSYAMGWYRQAPGKERELVAAISRSGGSTYYADSVKGRFTISRDNAKNTVYLQMNSLKPEDTAVYYCAARGHLRYESDYWGQGTQVTVSS
- polyreactivity (PSR sort gate): high polyreactivity

Sequence: QVQLVESGGGLVQAGGSLRLSCAASGSIFEWYAMGWYRQEPGKERELVADITYNGGSTYYADSVKGRFTISRDNAKNTVYLQMNSLKPEDSAVYYCNKDIERYVSIYDSWGQGTQVTVSS
- polyreactivity (PSR sort gate): low polyreactivity

Sequence: QVQLVESGGGLVQAGGSLRLSCAASGRIFSRNAMGWYRQAPGKERELVAAISSSAGSTYYADSVKGRFTISRDNAKHTVYLQMNSLKPEDTAVYYCGAESVGDMDYWGQGTQVSVSS
- polyreactivity (PSR sort gate): low polyreactivity

Sequence: QVQLVESGGGLVQAGGSLRLSCAASGRIFTAYAMVWYRPAPGKERELVAAISSGDSTYYADSVKGRFTISRDNAKNTVYLQKNSLKPEETAVYSCATGVYPDFEYDSWGQGTQVTVSS
- polyreactivity (PSR sort gate): low polyreactivity

Sequence: QVQLVESGGGLVQAGGSLRLSCAASGFIFSGYAMGWYRQAPGKEREVVATISRGGSTTYYADSVKGRFTISRDNAKNTVYLQKTSLKPEETGAYYCATVGYPYRPVYIRRPYRYNSWGQGTQVTVSS
- polyreactivity (PSR sort gate): high polyreactivity

Sequence: QVQLVESGGGLVQAGGSLRLSCAASGFTFGYYGMGSYRQAPGKERELVAAISWSGGSTYYADSVKGRFTISRDNAKNTVYLQMNSLKPEDTAVYYCAASAGYASNYWGQGTQVTVSS
- polyreactivity (PSR sort gate): low polyreactivity

Sequence: QVQLVESGGGLVQAGGSLRLSCAASGSILSLNGMGWYRQAPGKERELVAVIRSGGSTYYADSVKGRFTISRDNAKNTVYLQMNSLKPEDTAVYYCNAQDYLTTVPDPEYDYWGQGTQVTVSS
- polyreactivity (PSR sort gate): low polyreactivity

Sequence: QVQLVESGGGLVQAGGSLRLSCAASGRIFKYYAMGWYRQAPGKERELVARISSGGGRTYYADSVKGRFTISRDNAKNTVYLQMNSLKPEDTAVYYCAADPPASYHTWYGYWGQGTQVTVSS
- polyreactivity (PSR sort gate): high polyreactivity

Source: the nanobody polyreactivity screen of Harvey et al. (2022)
